Substitutions are numbered along the chain they refer to. In names and notes the source's numbering stands. Each block holds one binder with its values, some of them ahead of it.
Legend:
human IL-13 [1] = target: T1, human IL-13 (human, UniProt P35225 33-146, biotinylated in the IL-13Rα2 competition ELISA); assay: SPR Biacore 3000; antibody captured on anti-human Fc, cytokine 0-50 nM injected, 25 °C, 1:1 Langmuir model
T1 construct: Made at Genentech; also called biotinylated human IL-13; immobilized IL-13

[2] = target: T2, human interleukin-4 (IL-4) (human, UniProt P05112 25-153, biotinylated in the competition ELISAs); assay: as above
T2 construct: Commercial human IL-4 (R&D Systems); also called human IL-4; biotinylated IL-4
T2 sequence: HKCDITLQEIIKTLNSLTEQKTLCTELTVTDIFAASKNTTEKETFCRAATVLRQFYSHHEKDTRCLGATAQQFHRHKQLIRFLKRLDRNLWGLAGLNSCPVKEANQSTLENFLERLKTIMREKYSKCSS

human IL-13 [3] = target: T1, human IL-13; assay: cell-based or functional assay
[4] = target: T2, human interleukin-4 (IL-4); assay: cell-based or functional assay
human IL-13 R130Q = target: T3, human IL-13 R130Q (human, UniProt P35225 25-146, biotinylated in the IL-13Rα1 competition ELISA); assay: SPR Biacore 3000; antibody captured on anti-human Fc, cytokine 0-50 nM injected, 25 °C, 1:1 Langmuir model
T3 construct: also called biotinylated IL-13 R130Q

cynomolgus monkey IL-4 = target: T4, cynomolgus monkey IL-4 (cynomolgus monkey, UniProt P79339 25-153); assay: as above
T4 construct: Made at Genentech; also called cyno IL-4
T4 sequence: T2 sequence with E26K, V29I, F33L

cynomolgus monkey IL-13 = target: T5, cynomolgus monkey IL-13 (cynomolgus monkey, UniProt Q5I6E4 19-132 (Macaca thibetana entry), limits assumed); assay: as above
T5 construct: also called cyno IL-13
T5 chain: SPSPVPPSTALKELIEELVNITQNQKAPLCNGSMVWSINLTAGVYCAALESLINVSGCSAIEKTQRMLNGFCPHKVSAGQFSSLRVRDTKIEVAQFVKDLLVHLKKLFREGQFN

[5] = target: T2, human interleukin-4 (IL-4); assay: competition ELISA: antibody premixed with biotinylated human IL-4 (5.8 ng/ml), then added to plate-coated human IL-4R; streptavidin-HRP, OD 450 nm
human IL-13 [6] = target: T1, human IL-13; assay: competition ELISA: antibody premixed with biotinylated human IL-13 (0.056 µg/ml), then added to plate-coated human IL-13Rα2-Fc; streptavidin-HRP, OD 450 nm
[7] = target: T2, human interleukin-4 (IL-4); assay: SPR (BIAcore A100): IgG captured by anti-human Fcγ antibody, recombinant IL-4 injected, 1:1 Langmuir fit
[8] = target: T2, human interleukin-4 (IL-4); assay: SPR BIAcore A100; IgG captured on anti-human Fcγ, recombinant IL-4 injected, 1:1 model
[9] = target: T2, human interleukin-4 (IL-4); assay: SPR
[10] = target: T2, human interleukin-4 (IL-4); assay: cell-based or functional assay; remark: listed apart in the source
[11] = target: T2, human interleukin-4 (IL-4); assay: SPR Biacore

B2: anti-IL-4/IL-13 IgG4 bispecific antibody (knobs-into-holes, S228P, wild-type R409) (bispecific antibody)
heavy 1: EVQLVESGGGLVQPGGSLRLSCAASGYTFTDYSMHWVRQAPGKGLEWVVWINTETGEPTYADSVKGRFTISLDNSKNTAYLQMNSLRAEDTAVYYCARGGIFYGMDYWGQGTLVTVSSASTKGPSVFPLAPCSRSTSESTAALGCLVKDYFPEPVTVSWNSGALTSGVHTFPAVLQSSGLYSLSSVVTVPSSSLGTKTYTCNVDHKPSNTKVDKRVESKYGPPCPPCPAPEFLGGPSVFLFPPKPKDTLMISRTPEVTCVVVDVSQEDPEVQFNWYVDGVEVHNAKTKPREEQFNSTYRVVSVLTVLHQDWLNGKEYKCKVSNKGLPSSIEKTISKAKGQPREPQVYTLPPSQEEMTKNQVSLSCAVKGFYPSDIAVEWESNGQPENNYKTTPPVLDSDGSFFLVSRLTVDKSRWQEGNVFSCSVMHEALHNHYTQKSLSLSLGK
light 1: DIQMTQSPSSLSASVGDRVTITCKASQSVINDAAWYQQKPGKAPKLLIYYTSHRYTGVPSRFSGSGSGTDFTLTISSLQPEDFATYYCQQDYTSPWTFGQGTKVEIKRTVAAPSVFIFPPSDEQLKSGTASVVCLLNNFYPREAKVQWKVDNALQSGNSQESVTEQDSKDSTYSLSSTLTLSKADYEKHKVYACEVTHQGLSSPVTKSFNRGEC
heavy 2: not shown
light 2: DIVLTQSPDSLSVSLGERATINCRASKSVDSYGNSFMHWYQQKPGQPPKLLIYLASNLESGVPDRFSGSGSGTDFTLTISSLQAEDVAVYYCQQNNEDPRTFGGGTKVEIKRTVAAPSVFIFPPSDEQLKSGTASVVCLLNNFYPREAKVQWKVDNALQSGNSQESVTEQDSKDSTYSLSSTLTLSKADYEKHKVYACEVTHQGLSSPVTKSFNRGEC
notes: Half antibodies made in E. coli (not glycosylated) and assembled by redox chemistry; also called anti-IL-4/IL-13 bispecific antibody; anti-IL-4/IL-13 IgG4-isotype
Kd (human IL-13 R130Q): 0.142 nM | koff (human IL-13 R130Q): 2.62e-05 s⁻¹ | kon (human IL-13 R130Q): 184000 M⁻¹ s⁻¹ | Kd (human IL-13 [1]): 0.056 nM | koff (human IL-13 [1]): 3.01e-05 s⁻¹ | kon (human IL-13 [1]): 537000 M⁻¹ s⁻¹ | Kd (cynomolgus monkey IL-4): 0.076 nM | koff (cynomolgus monkey IL-4): 0.000151 s⁻¹ | kon (cynomolgus monkey IL-4): 2.02e+06 M⁻¹ s⁻¹ | Kd (cynomolgus monkey IL-13): 0.048 nM | koff (cynomolgus monkey IL-13): 2.83e-05 s⁻¹ | kon (cynomolgus monkey IL-13): 608000 M⁻¹ s⁻¹ | Kd [2]: 0.046 nM | koff [2]: 0.000133 s⁻¹ | kon [2]: 2.87e+06 M⁻¹ s⁻¹ | IC50 (read off the curve) [5]: ~0.2 µg/mL | IC50 (read off the curve) (human IL-13 [6]): ~0.2 µg/mL | IC50 of TF-1 proliferation inhibition assay (IL-13) (human IL-13 [3]): 0.03 µg/mL | IC50 of TF-1 proliferation inhibition assay (IL-4) [4]: 0.05 µg/mL

B4: humanized 19C11-VH3.FLA/κ3 graft (antibody, V domains shown)
VH: EVQLVESGGGLVQPGGSLRLSCAASGYTFTDYSMHWVRQAPGKGLEWVVWINTETGEPTYADDFKGRFTFSLDNSKNTAYLQMNSLRAEDTAVYYCARGGIFYGMDYWGQGTLVTVSS
VL: EIVLTQSPATLSLSPGERATLSCKASQSVINDAAWYQQKPGQAPRLLIYYTSHRYTGIPARFSGSGSGTDFTLTISSLEPEDFAVYYCQQDYTSPWTFGQGTKVEIKR
notes: Human IgG expressed in 293 cells; also called 19C11-VH3.FLA with 19C11-κ3 graft
Kd [8]: 0.011 nM

B5: mu19C11 (clone 19C11, murine anti-human IL-4 monoclonal antibody) (antibody, V domains shown)
VH: QIQLVQSGPELKKPGETVKISCKASGYTFTDYSMHWMKQAPGKGLKWMVWINTETGEPTYADDFKGRFAFSLETSANTAYLKINNLKNEDTATYFCARGGIFYGMDYWGQGTSVTVSS
VL: SIVMTQTPKFLLISAGDRVTITCKASQSVINDAAWYQQKPGQSPRLLIYYTSHRYTGVPDRFTGSGYGTDFTFTISTVQAEDLAVYFCQQDYTSPWTFGGGTKLEIKR
notes: Mouse hybridoma IgG (BALB/c); Tested as hybridoma supernatant IgG or purified IgG
Kd [9]: ≤ 0.01 nM | IC50 for blocking IL-4-induced proliferation of TF-1 cells [10]: 0.014 µg/mL

B6: 19C11 Chimera (antibody, V domains shown)
VH: B5 VH
VL: B5 VL
notes: also called chimeric 19C11 (mouse variable regions with human IgG constant regions)
Kd [7]: < 0.01 nM

B7: HuVHI / HuKI (antibody, V domains shown)
VH: QVQLVQSGAEVKKPGASVKVSCKASGYTFTDYSMHWVRQAPGQGLEWMVWINTETGEPTYADDFKGRVTITRDTSTSTAYLELSSLRSEDTAVYYCARGGIFYGMDYWGQGTLVTVSS
VL: DIQMTQSPSSLSASVGDRVTITCKASQSVINDAAWYQQKPGKAPKLLIYYTSHRYTGVPSRFSGSGSGTDFTLTISSLQPEDFATYYCQQDYTSPWTFGQGTKVEIKR
notes: also called humanized 19C11-VH1 graft/κ1 graft
Kd [7]: 0.024 nM

B11: HuVHIII (FLA) / HuKI (antibody, V domains shown)
VH: B4 VH
VL: B7 VL
notes: also called humanized 19C11-VH3.FLA/κ1 graft
Kd [7]: 0.14 nM

Continued, values first:

Kd (human IL-13 [1]): 0.023 nM | koff (human IL-13 [1]): 1.7e-05 s⁻¹ | kon (human IL-13 [1]): 714000 M⁻¹ s⁻¹ | Kd [2]: 0.068 nM | koff [2]: 8.48e-05 s⁻¹ | kon [2]: 1.34e+06 M⁻¹ s⁻¹ | IC50 of TF-1 proliferation inhibition assay (IL-13) (human IL-13 [3]): 0.03 µg/mL | IC50 of TF-1 proliferation inhibition assay (IL-4) [4]: 0.06 µg/mL
B1: anti-IL-4/IL-13 IgG1 bispecific antibody (knobs-into-holes) (bispecific antibody)
heavy 1: not shown
light 1: B2 light 1
heavy 2: not shown
light 2: B2 light 2
notes: Half antibodies made in E. coli (not glycosylated) and assembled by redox chemistry; Anti-IL-4 arm is the hole, anti-IL-13 arm the knob; also called anti-IL-4/IL-13 IgG1-isotype

Kd [7]: 0.026 nM
B3: HuVHIII / HuKIII (antibody, V domains shown)
VH: B4 VH with F70I, L72R, A79L
VL: B4 VL
notes: also called humanized 19C11-VH3 graft/κ3 graft

binding result [11]: binds
B8: humanized antibody 19C11-VH3.LA.SV/κ1 graft (anti-IL-4) (antibody, V domains shown)
VH: B4 VH with D63S, F64V, F70I
VL: B7 VL
notes: Parental (monospecific) humanized anti-IL-4 antibody; also called parental anti-IL-4 antibody; hu19C11

Kd [7]: 0.084 nM
B9: HuVHIII / HuKI (antibody, V domains shown)
VH: B4 VH with F70I, L72R, A79L
VL: B7 VL
notes: also called humanized 19C11-VH3 graft/κ1 graft

Kd [8]: 0.011 nM
B10: humanized 19C11-VH1.FFL/κ3 graft (antibody, V domains shown)
VH: B7 VH with V68F, I70F, R72L
VL: B4 VL
notes: Human IgG expressed in 293 cells; also called 19C11-VH1.FFL with 19C11-κ3 graft

From patent US20160207995A1 (Genentech, published 2016)
